Data: PMC10033314

Experiments:
[1] = molecular target: Biglycan, full length, C-terminal 6x-His (human) (UniProt P21810)
[2] = molecular target: Quenched-fluorescent peptide substrate fluorescein-5(6)-carbonyl-Ala-Glu-Leu-Asn-Gly-Arg-Pro-Ile-Ser-Ile-Ala-Lys(5(6)-TAMRA)
[3] = molecular target: Versican V1-5GAG (truncated V1, residues 21-694) (UniProt P13611)
Full-length versican V1 [4] = molecular target: Full-length versican V1 (UniProt P13611)
[5] = molecular target: Versican V1-5GAG (truncated V1, residues 21-694) (UniProt P13611); remark: listed apart in the source
Full-length versican V1 [6] = molecular target: Full-length versican V1 (UniProt P13611); remark: listed apart in the source

Sequence of UniProt P21810 (P21810 38-368): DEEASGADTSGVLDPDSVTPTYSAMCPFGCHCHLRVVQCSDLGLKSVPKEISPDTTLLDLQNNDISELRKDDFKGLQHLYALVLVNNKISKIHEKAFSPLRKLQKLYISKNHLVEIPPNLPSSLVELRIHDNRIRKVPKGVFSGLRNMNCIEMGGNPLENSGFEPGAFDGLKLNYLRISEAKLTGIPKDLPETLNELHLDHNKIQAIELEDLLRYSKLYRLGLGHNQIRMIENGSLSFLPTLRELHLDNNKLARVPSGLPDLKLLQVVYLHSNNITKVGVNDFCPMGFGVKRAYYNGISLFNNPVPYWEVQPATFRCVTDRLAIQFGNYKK

Row | reduction of the 30 kDa biglycan fragment against WT ADAMTS1; variant at 50 nM, 24 h at 37 °C, immunoblot and densitometry [1] | kcat/Km for proteolysis of the QF peptide [2] | kcat/Km for cleavage of V1-5GAG (50 nM), time course with versikine ELISA [3] | kcat/Km for cleavage of FL versican, as told in the discussion and the abstract (Full-length versican V1 [4]) | kcat/Km for cleavage of V1-5GAG (50 nM) at Glu441-Ala442, time course with versikine ELISA [5] | kcat/Km for cleavage of V1 (50 nM) at Glu441-Ala442, time course with versikine ELISA, no cofactor (Full-length versican V1 [6]) | Molecule
1 | 75 % reduction | 4500 M⁻¹ s⁻¹ | 260 M⁻¹ s⁻¹ |  |  |  | ADAMTS1 variant MDTC (truncated after the cysteine-rich domain) (domain or fragment)
2 |  | 4200 M⁻¹ s⁻¹ |  | 3600 M⁻¹ s⁻¹ | 4200 M⁻¹ s⁻¹ | 3400 M⁻¹ s⁻¹ | A disintegrin-like and metalloproteinase with thrombospondin type 1 motifs 1 (ADAMTS1), wild type (enzyme) FVSSHRYVETMLVADQSMAEFHGSGLKHYLLTLFSVAARLYKHPSIRNSVSLVVVKILVIHDEQKGPEVTSNAALTLRNFCNWQKQHNPPSDRDAEHYDTAILFTRQDLCGSQTCDTLGMADVGTVCDPSRSCSVIEDDGLQAAFTTAHELGHVFNMPHDDAKQCASLNGVNQDSHMMASMLSNLDHSQPWSPCSAYMITSFLDNGHGECLMDKPQNPIQLPGDLPGTSYDANRQCQFTFGEDSKHCPDAASTCSTLWCTGTSGGVLVCQTKHFPWADGTSCGEGKWCINGKCVNKTDRKHFDTPFHGSWGMWGPWGDCSRTCGGGVQYTMRECDNPVPKNGGKYCEGKRVRYRSCNLEDCPDNNGKTFREEQCEAHNEFSKASFGSGPAVEWIPKYAGVSPKDRCKLICQAKGIGYFFVLQPKVVDGTPCSPDSTSVCVQGQCVKAGCDRIIDSKKKFDKCGVCGGNGSTCKKISGSVTSAKPGYHDIITIPTGATNIEVKQRNQRGSRNNGSFLAIKAADGTYILNGDYTLSTLEQDIMYKGVVLRYSGSSAALERIRSFSPLKEPLTIQVLTVGNALRPKIKYTYFVKKKKESFNAIPTFSAWVIEEWGECSKSCELGWQRRLVECRDINGQPASECAKEVKPASTRPCADHPCPQWQLGEWSSCSKTCGKGYKKRSLKCLSHDGGVLSHESCDPLKKPKHFIDFCTMAECS
